Publication doi:10.1101/2024.06.24.600433, “Role of the antiparallel double-stranded filament form of FtsA in activating the Escherichia coli divisome” (bioRxiv, 2024)
Numbering of substitutions follows the chain as printed. In names and notes the source's numbering stands.

Key:
[1] = molecular target: the molecule itself; test: cross-linking; in vivo cysteine crosslinking of E. coli cells in cold PBS with 0.5 mM BMB or BMH for 10 min, quenched with 40 mM BME; SDS-PAGE and anti-FtsA immunoblot; dividing cells (ftsZ84(ts) 10 and 20 min after return to 30°C; ftsQ1ts, zipA1ts and ftsA^o strains at 30°C, ftsA^o strain also at 42°C; WM4952 at 37°C; WM4953 ftsL*)
[2] = molecular target: the molecule itself; test: cross-linking; in vivo cysteine crosslinking, zipA1(ts) strain WM7149 shifted to the nonpermissive 42°C; anti-FtsA immunoblot
[3] = molecular target: the molecule itself; test: cross-linking; in vivo cysteine crosslinking, ftsQ1(ts) strain WM7148 shifted to the nonpermissive 42°C; anti-FtsA immunoblot

B1: FtsA^M71A with Q155C (natural protein, E. coli, UniProt P0ABH0 1-420, looked up)
chain: MIKATDRKLVVGLEIGTAKVAALVGEVLPDGMVNIIGVGSCPSRGMDKGGVNDLESVVKCVQRAIDQAELAADCQISSVYLALSGKHISCQNEIGMVPISEEEVTQEDVENVVHTAKSVRVRDEHRVLHVIPQEYAIDYQEGIKNPVGLSGVRMCAKVHLITCHNDMAKNIVKAVERCGLKVDQLIFAGLASSYSVLTEDERELGVCVVDIGGGTMDIAVYTGGALRHTKVIPYAGNVVTSDIAYAFGTPPSDAEAIKVRHGCALGSIVGKDESVEVPSVGGRPPRSLQRQTLAEVIEPRYTELLNLVNEEILQLQEKLRQQGVKHHLAAGIVLTGGAAQIEGLAACAQRVFHTQVRIGAPLNITGLTDYAQEPYYSTAVGLLHYGKESHLNGEAEVEKRVTASVGSWIKRLNSWLRKEF
notes: FtsA of E. coli with M71A and Q155C; M71A introduced into pWM7049 or pWM7239 by site-directed mutagenesis; I take them to be the Q155C and the R286W Q155C derivatives of pDSW210-FLAG-FtsA; source: E. coli, expressed from a plasmid, in cells (crosslinked in vivo)
- DS filament crosslinking at Q155C relative to WT FtsA [1]: ~35 % of WT levels

B2: FLAG-FtsA^Q155C (natural protein, E. coli, UniProt P0ABH0 1-420, looked up)
chain: B1 chain with A71M
notes: FtsA of E. coli with Q155C, made by site-directed mutagenesis on pWM2785 (pDSW210-FLAG-FtsA); probably the whole FtsA reading frame, since it complements an ftsA null allele; also called pDSW210-FLAG-FtsA^Q155C; source: E. coli, expressed from pDSW210 with IPTG, in cells (crosslinked in vivo); not shown: FLAG, N-terminal, kept
- fold decrease of the crosslinked band at 42°C against 30°C [2]: 7.5 fold
- fold decrease of the crosslinked band at 42°C against 30°C [3]: 3 fold
